# Experimental data from EP4681729A1.
# Experiments:
# [1] = biological target: h-PVRIG-mIgG2a Fc (mouse IgG2a Fc-tagged human PVRIG recombinant protein) (human; mouse) (UniProt Q6DKI7); experiment: competition ELISA, coated h-PVRIG-mIgG2a Fc, his-tagged PVRL2 as the ligand that is blocked
# [2] = biological target: h-PVRIG-his (his-tagged human PVRIG recombinant protein) (human) (UniProt Q6DKI7); experiment: ELISA, plate coated with PVRIG-his
# [3] = biological target: h-PVRIG-his (his-tagged human PVRIG recombinant protein) (human) (UniProt Q6DKI7); experiment: ELISA, human PVRIG recombinant protein
# [4] = biological target: h-PVRIG-mIgG2a Fc (mouse IgG2a Fc-tagged human PVRIG recombinant protein) (human; mouse) (UniProt Q6DKI7); experiment: blocking ELISA (method of Example 2-3), human PVRL2 as the ligand that is blocked
# [5] = biological target: h-PVRIG-his (his-tagged human PVRIG recombinant protein) (human) (UniProt Q6DKI7); experiment: Fortebio BLI, antibody on Protein A sensor, his-tagged human PVRIG 64-4 nM, 1:1 fit
# h-PVRIG-his (his-tagged human PVRIG recombinant protein) (human), sequence (Q6DKI7 41-171 limits assumed): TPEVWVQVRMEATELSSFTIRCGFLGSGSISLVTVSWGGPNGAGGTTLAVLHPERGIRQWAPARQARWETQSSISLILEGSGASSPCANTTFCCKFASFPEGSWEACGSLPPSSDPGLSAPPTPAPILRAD
# h-PVRIG-mIgG2a Fc (mouse IgG2a Fc-tagged human PVRIG recombinant protein) (human; mouse), sequence (Q6DKI7 41-171 limits assumed): as above
binder,measurement,setting,value
"Tab5 (antibody, from another filing, V domains shown) VH: EVQLVESGGGVVKPGGSLRLSCAASGFTFGTSSMNWVRQAPGKGLEWVAVISFDGTEIHYADSVKGRFTISRDNSKSTVFLQMNSLRPDDTALYYCAKGSGNIYFYSGMDVWGQGTTVTVSS VL: DIQMTQSPSTLSASVGDRVTITCRAGQSISGWLAWFQQKPGKAPNLLIYETSTLESGVPSRFSGSGSGTEYTLTISSLQPDDFATYYCQQYYSYPLTFGQGTKVEIKR",IC50,[1],1.16 nM
same,EC50,[2],2.86 nM
same,EC50,[3],1.41 nM
same,IC50,[4],0.964 nM
same,Kd,[5],0.219 nM
same,koff,[5],1.61e-05 s⁻¹
same,kon,[5],737000 M⁻¹ s⁻¹
